Assay results as given in paper PMC7532178, “Interaction of protocadherin-15 with the scaffold protein whirlin supports its anchoring of hair-bundle lateral links in cochlear hair cells” (Scientific Reports, 2020).
No end group written: not given here. *: point of attachment. Biotin = O=C1N[C@H]2[C@H](CS[C@H]2CCCCC(=O)*)N1; TTDS = trioxatridecan-succinamic acid spacer

T1: whirlin-HHD1 (aa residues 30-121) (mouse, UniProt Q80VW5-1 30-121)
T1 construct: extra 7 aa at the N-terminus of all recombinant proteins of the study; whirlin, residues 30-121: harmonin-homology domain 1 (HHD1); also called HHD1 domain alone; source: E. coli BL21 (DE3) codonPlus-RIPL, purified (Glutathione Sepharose 4B, GST removed by TEV proteinase, SEC)
T1 sequence: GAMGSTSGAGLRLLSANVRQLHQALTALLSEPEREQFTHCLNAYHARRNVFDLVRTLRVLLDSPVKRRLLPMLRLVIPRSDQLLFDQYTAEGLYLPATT

T2: whirlin-PDZ2 (aa residues 272-368) (mouse, UniProt Q80VW5-1 272-368)
T2 construct: extra 7 aa at the N-terminus of all recombinant proteins of the study; whirlin, residues 272-368: PDZ2 domain; source: E. coli BL21 (DE3) codonPlus-RIPL, purified (Glutathione Sepharose 4B, GST removed by TEV proteinase, SEC)
T2 sequence: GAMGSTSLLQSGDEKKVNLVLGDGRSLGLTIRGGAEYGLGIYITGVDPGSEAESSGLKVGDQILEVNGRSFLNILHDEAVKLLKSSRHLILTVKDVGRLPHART

T3: whirlin-PDZ1 (aa residues 137-228) (mouse, UniProt Q80VW5-1 137-228)
T3 construct: extra 7 aa at the N-terminus of all recombinant proteins of the study; whirlin, residues 137-228: PDZ1 domain; also called whirlin PDZ1 domain alone; source: E. coli BL21 (DE3) codonPlus-RIPL, purified (Glutathione Sepharose 4B, GST removed by TEV proteinase, SEC)
T3 sequence: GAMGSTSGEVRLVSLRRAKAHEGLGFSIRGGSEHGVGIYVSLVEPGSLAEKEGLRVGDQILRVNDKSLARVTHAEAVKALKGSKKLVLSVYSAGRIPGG

T4: whirlin-PDZ3 (aa residues 821-915) (mouse, UniProt Q80VW5-1 821-915)
T4 construct: extra 7 aa at the N-terminus of all recombinant proteins of the study; whirlin, residues 821-915: PDZ3 domain, common to L- and S-whirlin; also called whirlin PDZ3 domain
T4 sequence: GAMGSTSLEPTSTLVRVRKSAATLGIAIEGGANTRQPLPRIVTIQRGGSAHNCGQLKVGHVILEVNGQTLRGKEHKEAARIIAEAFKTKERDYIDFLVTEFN

T5: whirlin-NTR (aa residues 2-147) (mouse, UniProt Q80VW5-1 2-147)
T5 construct: extra 7 aa at the N-terminus of all recombinant proteins of the study; also called entire NTR of whirlin (containing the HHD1 domain); source: E. coli BL21 (DE3) codonPlus-RIPL, purified (Glutathione Sepharose 4B, GST removed by TEV proteinase, SEC)
T5 sequence: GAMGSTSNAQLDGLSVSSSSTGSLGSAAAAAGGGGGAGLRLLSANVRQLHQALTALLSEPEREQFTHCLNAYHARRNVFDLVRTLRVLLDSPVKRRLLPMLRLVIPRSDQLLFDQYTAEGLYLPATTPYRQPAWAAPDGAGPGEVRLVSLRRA

T6: whirlin PDZ1-Hp (aa residues 137-246) (mouse, UniProt Q80VW5-1 137-246)
T6 construct: extra 7 aa at the N-terminus of all recombinant proteins of the study; whirlin, residues 137-246: PDZ1 with its hairpin extension Hp1; also called PDZ1 + Hp1; whirlin PDZ1-Hp1 fragment
T6 sequence: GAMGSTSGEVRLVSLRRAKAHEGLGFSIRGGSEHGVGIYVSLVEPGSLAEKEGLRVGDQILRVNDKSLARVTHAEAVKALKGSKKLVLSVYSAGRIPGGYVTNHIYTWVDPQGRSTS


How the values were obtained:
Assay in all cases: SPR; ProteOn XPR 36; N-terminally biotinylated peptides captured on a Neutravidin NLC sensor chip, whirlin fragments flowed as analytes at 20 μL/min for 2 min; 250 mM NaCl, 50 mM Tris pH 7.5, 0.5 mM TCEP; steady-state fit Req = (Rmax*C)/(Kd+C); mean of three experiments; Figure 4B shows the responses at 10 μM
Settings in all cases: both partners purified
[1] = target: T1, whirlin-HHD1 (aa residues 30-121)
[2] = target: T2, whirlin-PDZ2 (aa residues 272-368)
[3] = target: T3, whirlin-PDZ1 (aa residues 137-228)
[4] = target: T4, whirlin-PDZ3 (aa residues 821-915)
[5] = target: T5, whirlin-NTR (aa residues 2-147)
[6] = target: T6, whirlin PDZ1-Hp (aa residues 137-246)

Kd [1] [mM]	Kd [2] [µM]	Kd [3] [µM]	Kd [4] [µM]	Kd [5] [mM]	Kd [6] [µM]	Binder
> 1	> 1000	147	> 1000	> 1	33	{Biotin-TTDS}-GANSEQYNTAL (C-terminal 11 aa of protocadherin-15 isoform CD2, including the PBM; source: synthetic peptide (Eurogentec); not shown: biotin, N-terminal, kept) [PCDH15-CD2 C-terminal peptide (biotin-TTDS-GANSEQYNTAL)]
> 1	460	34	230	> 1	11	{Biotin-TTDS}-MGPWNSLHIPMTKL (C-terminal 14 aa of protocadherin-15 isoform CD3, including the PBM; source: synthetic peptide (Eurogentec); not shown: biotin, N-terminal, kept) [PCDH15-CD3 C-terminal peptide (biotin-TTDS-MGPWNSLHIPMTKL)]
> 1	> 1000	106	> 1000	> 1	29	{Biotin-TTDS}-GIDVQPHSQSTSL (C-terminal 13 aa of protocadherin-15 isoform CD1, including the PBM; source: synthetic peptide (Eurogentec); not shown: biotin, N-terminal, kept) [PCDH15-CD1 C-terminal peptide (biotin-TTDS-GIDVQPHSQSTSL)]
